Results reported in US20230213527A1, “COMPOSITIONS AND METHODS FOR POLYPEPTIDE ANALYSIS” (Quantum-Si Incorporated, priority 2021, published 2023).

Tests used:
[1] = target: acetyl-lysine peptide of Example 6 (printed as RLK{acetyl}FIAYPDDD, SEQ ID NO: 826), state with N-terminal AK{acetyl}; assay: single-molecule on-chip sequencing with PS691, PS610, PS961 and PS1165
[2] = target: lysine peptide of Example 6 (printed as …, SEQ ID NO: 825), state with N-terminal AK; assay: as above

Sequence of PS1165 (Q13490 other isoform, or with tags, fused parts or gaps): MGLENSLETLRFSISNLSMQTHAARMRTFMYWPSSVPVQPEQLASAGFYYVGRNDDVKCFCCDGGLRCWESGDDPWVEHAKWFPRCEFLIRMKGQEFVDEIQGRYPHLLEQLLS

PS1165 (from UniProt Q13490 250-361) showed an RS mean PD [1] of 2.2 s and an RS mean PD [2] of 1.3 s.
